Measured values: US20210347867A1

Tests used:
amyloid peptide Aβ1-42 = amyloid peptide Aβ1-42 (UniProt P05067); test: ELISA, plate coated with Aβ1-42 (target by legend paragraph 23), antibody titrated, signal as % Max
amyloid peptide AβpE3-42 = amyloid peptide AβpE3-42 (UniProt P05067); test: ELISA, plate coated with AβpE3-42, antibody titrated, signal as % Max
amyloid peptide AβpE3-42, sequence (P05067 674-713 limits assumed): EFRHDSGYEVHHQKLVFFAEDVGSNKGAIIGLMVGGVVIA

amyloid peptide Aβ1-42, sequence (P05067 672-713 limits assumed): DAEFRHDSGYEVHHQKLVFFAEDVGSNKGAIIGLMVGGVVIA

For Solineuzumab (antibody), the EC50 (amyloid peptide Aβ1-42) was 0.22 µg/mL and the EC50 (amyloid peptide AβpE3-42) was 0.15 µg/mL.
